# Reference: PMC11079029, “Intramolecular autoinhibition regulates the selectivity of PRPF40A tandem WW domains for proline-rich motifs” (Nature Communications, 2024)
# T1: GB1-SF1 Pro A (residues 410-468) (UniProt Q15637 410-468)
# T1 construct: splicing factor 1 (SF1), residues 410-468 of the proline-rich C-terminal region; His6-GB1-TEV site cassette of the pET24 vector, not cleaved; source: E. coli BL21(DE3), purified (Ni-NTA, SEC); not shown: GB1, N-terminal, kept
# T1 sequence (looked up): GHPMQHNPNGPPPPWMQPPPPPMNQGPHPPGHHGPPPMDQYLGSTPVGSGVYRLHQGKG
# T2: GB1-SF1 Pro B (residues 468-539) (UniProt Q15637 468-539)
# T2 construct: splicing factor 1 (SF1), residues 468-539 of the proline-rich C-terminal region; His6-GB1-TEV site cassette of the pET24 vector, not cleaved; source: E. coli BL21(DE3), purified (Ni-NTA, SEC); not shown: GB1, N-terminal, kept
# T2 sequence (looked up): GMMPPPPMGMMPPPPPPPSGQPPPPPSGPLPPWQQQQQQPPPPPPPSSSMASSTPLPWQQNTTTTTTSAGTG
# T3: GB1-SF1 Pro C (residues 539-594) (UniProt Q15637 539-594)
# T3 construct: splicing factor 1 (SF1), residues 539-594 of the proline-rich C-terminal region (holds the WWbs motif 575-590); His6-GB1-TEV site cassette of the pET24 vector, not cleaved; source: E. coli BL21(DE3), purified (Ni-NTA, SEC); not shown: GB1, N-terminal, kept
# T3 sequence (looked up): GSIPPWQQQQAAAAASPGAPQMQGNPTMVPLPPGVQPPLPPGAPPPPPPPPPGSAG
# T4: GB1-SF1 Pro D (residues 594-639) (UniProt Q15637 594-639)
# T4 construct: splicing factor 1 (SF1), residues 594-639 of the proline-rich C-terminal region; His6-GB1-TEV site cassette of the pET24 vector, not cleaved; source: E. coli BL21(DE3), purified (Ni-NTA, SEC); not shown: GB1, N-terminal, kept
# T4 chain (looked up): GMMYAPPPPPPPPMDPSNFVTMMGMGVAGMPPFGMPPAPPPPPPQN
# T5: GB1-polyproline peptide P10
# T5 chain: PPPPPPPPPP
# T6: GB1-polyproline peptide P13
# T6 chain: PPPPPPPPPPPPP
# T7: GB1-polyproline peptide P16
# T7 chain: PPPPPPPPPPPPPPPP
# T8: GB1-polyproline peptide P19
# T8 chain: PPPPPPPPPPPPPPPPPPP
# T9: GB1-polyproline peptide P22
# T9 chain: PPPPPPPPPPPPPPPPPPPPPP
# T10: GB1-polyproline peptide P25
# T10 chain: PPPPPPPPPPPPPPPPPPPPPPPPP
# How the values were obtained:
# Assay in all cases: ITC; GB1-peptide or GB1-SF1 construct in the cell, PRPF40A WW12 in the syringe (as shown in Supplementary Figures 7 and 16A); 25 °C, 20 mM sodium phosphate pH 6.5, 100 mM NaCl; one-site binding model; at least duplicates; affinities apparent
# Settings in all cases: both partners purified
# [1] = target: T1, GB1-SF1 Pro A (residues 410-468)
# [2] = target: T2, GB1-SF1 Pro B (residues 468-539)
# [3] = target: T3, GB1-SF1 Pro C (residues 539-594)
# [4] = target: T4, GB1-SF1 Pro D (residues 594-639)
# [5] = target: T5, GB1-polyproline peptide P10
# [6] = target: T6, GB1-polyproline peptide P13
# [7] = target: T7, GB1-polyproline peptide P16
# [8] = target: T8, GB1-polyproline peptide P19
# [9] = target: T9, GB1-polyproline peptide P22
# [10] = target: T10, GB1-polyproline peptide P25
binder,measurement,setting,value
"PRPF40A WW12 (tandem WW domains, residues 141-236) (domain or fragment, human, UniProt O75400 141-236, looked up, A few vector residues probably remain at the N-terminus after TEV cleavage (pETM11, NcoI site); 15N-labelled in the NMR experiments; also called PRPF40A WW tandem; WW12 wt; source: E. coli BL21(DE3), purified (Ni-NTA, TEV digestion, reverse Ni-NTA, SEC); not shown: His6, N-terminal, cleaved) GAKSMWTEHKSPDGRTYYYNTETKQSTWEKPDDLKTPAEQLLSKCPWKEYKSDSGKPYYYNSQTKESRWAKPKELEDLEGYQNTIVAGSLITKSNL",stoichiometry N,[1],0.99 ± 0.17 sites
same,stoichiometry N,[2],1.15 ± 0.15 sites
same,stoichiometry N,[3],0.88 ± 0.01 sites
same,stoichiometry N,[4],0.87 ± 0.02 sites
same,stoichiometry N,[5],0.89 ± 0.11 sites
same,stoichiometry N,[6],0.78 ± 0.07 sites
same,stoichiometry N,[7],0.88 ± 0.08 sites
same,stoichiometry N,[8],1.1 ± 0.04 sites
same,stoichiometry N,[9],1.39 ± 0.03 sites
same,stoichiometry N,[10],2.3 ± 0.09 sites
